Data reported in paper doi:10.1101/2020.06.12.149468v2 (biorxiv, 2026).

T1: mouse NR4A3 ligand-binding domain (Mus musculus, UniProt Q9QZB6)
T1 sequence (Q9QZB6 395-624): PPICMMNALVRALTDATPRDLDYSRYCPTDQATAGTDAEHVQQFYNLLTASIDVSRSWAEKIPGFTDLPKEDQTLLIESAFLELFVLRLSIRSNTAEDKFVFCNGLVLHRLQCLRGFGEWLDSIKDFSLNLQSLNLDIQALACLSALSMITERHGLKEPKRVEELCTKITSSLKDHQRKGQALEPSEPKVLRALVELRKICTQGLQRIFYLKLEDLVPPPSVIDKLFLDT


Legend:
[1] = target: T1, mouse NR4A3 ligand-binding domain; assay: isothermal titration calorimetry
[2] = test system: C[C@]12CCC(=O)C=C1CC[C@@H]1[C@@H]2[C@@H](O)C[C@@]2(C)[C@H]1CC[C@]2(O)C(=O)CO; assay: purified protein; details: 50 mM phosphate pH 7.5, NADH
[3] = substrate: C[C@]12CCC(=O)C=C1CC[C@@H]1[C@@H]2[C@@H](O)C[C@@]2(C)[C@H]1CC[C@]2(O)C(=O)CO; assay: purified protein; details: 50 mM phosphate pH 7.5, NADH; remark: listed apart in the source

Molecule | Km [2] [µM] | kcat [2] [min⁻¹] | also measured
C[C@]12CCC(=O)C=C1CC[C@@H]1[C@@H]2[C@@H](O)C[C@@]2(C)[C@H]1CC[C@]2(O)[C@@H](O)CO [20α-dihydrocortisol] | – | – | Kd [1]: 21.9 ± 2.6 µM
CCCCC[C@H](O)/C=C/[C@H]1C=CC(=O)[C@@H]1C/C=C\CCCC(=O)O [PGA2] | – | – | Kd [1]: 66.6 ± 17.4 µM
DesC ([Clostridium] scindens ATCC 35704; H50A) | 23.99 ± 0.26 | 12.5 ± 0.89 | –
DesC ([Clostridium] scindens ATCC 35704; S47T) | 77.78 ± 1.78 | 0.66 ± 0.04 | –
DesC ([Clostridium] scindens ATCC 35704; Y101R) | 628.65 ± 29.96 | 1.77 ± 0.30 | –
DesC ([Clostridium] scindens ATCC 35704; Y124R) | 61.01 ± 2.71 | 8.06 ± 0.14 | –
DesC ([Clostridium] scindens ATCC 35704) (protein) MRQLFVTSIRDFEKNTMGTVDMMEAPMPEPKDEEIRIKVVYASICGSDTHILTGNLGEMESTTRSMLPMSFGHELSGVIDKVGSTAEKMGFKVGQKVVANYAKYCGCCENCREGKVNLCSNMGYRMNGFSEYAVYHMSQIFPIPDDADLKDYALVEPLTVALSSAEQAKISYGKSVAIMGAGGLGMMLVQLARLAGASTITVFDIVPEKLELALENGADYALNSAEEGVAERAIELAGGRYDCVLEGTGATAAAKLGLQLLARDGDAVYFAMYGKDPILPVNLQSDLYWDQKHIHGMIQGAWQFPKSIRMIPRMDFSKIIQKEHTLTNYKQAFEDLYSKKYAKIVIKMDE | – | – | Km [3]: 11.62 ± 1.02 µM; kcat [3]: 92.31 ± 7.49 min⁻¹
